Reference: article PMC6993239

Tests used:
[1] = molecular target: recombinant human FcγRI, histidine-tagged (human) (UniProt P12314); test: SPR
[2] = molecular target: histidine-tagged mouse FcγRI (mouse) (UniProt P26151); test: SPR; Biacore T200; His-tagged muFcγRI (2.4 nM) captured on an anti-histidine antibody CM5 chip; pertuzumab or conjugates as analyte, association and dissociation 120 s each; steady-state analysis
[3] = molecular target: recombinant human FcγRI, histidine-tagged (human) (UniProt P12314); test: SPR; Biacore T200; His-tagged huFcγRI (0.8 nM) captured on an anti-histidine antibody CM5 chip; pertuzumab or conjugates 0.78-100 nM as analyte, 5 min association, 5 min dissociation, 30 μL/min; HBS-P+ with 50 μM EDTA; 1:1 fit (RI set to 0)

UniProt P12314, sequence (P12314 16-292): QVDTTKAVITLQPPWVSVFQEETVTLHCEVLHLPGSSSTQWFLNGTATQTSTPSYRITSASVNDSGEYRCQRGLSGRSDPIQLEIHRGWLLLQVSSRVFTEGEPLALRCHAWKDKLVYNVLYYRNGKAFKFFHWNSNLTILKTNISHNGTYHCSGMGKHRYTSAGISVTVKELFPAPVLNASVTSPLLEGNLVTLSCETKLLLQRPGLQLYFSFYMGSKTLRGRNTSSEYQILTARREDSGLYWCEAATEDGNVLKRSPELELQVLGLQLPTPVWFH
UniProt P26151, sequence (P26151 25-297): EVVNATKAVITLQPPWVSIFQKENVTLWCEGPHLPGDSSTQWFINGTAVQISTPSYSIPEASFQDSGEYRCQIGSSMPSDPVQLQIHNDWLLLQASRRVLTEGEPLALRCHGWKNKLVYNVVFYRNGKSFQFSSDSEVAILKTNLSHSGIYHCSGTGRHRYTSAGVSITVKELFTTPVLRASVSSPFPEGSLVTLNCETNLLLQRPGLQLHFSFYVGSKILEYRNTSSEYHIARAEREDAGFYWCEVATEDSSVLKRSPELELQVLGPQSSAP

Row | Substance | koff [1] [s⁻¹] | Kd [2] [nM] | Kd [3] [nM] | interaction half-time [3] [min]
1 | DFO-^sspertuzumab-EndoS | 0.00387 | – | – | –
2 | DFO-^nsspertuzumab (antibody) | – | 250 | 4.1 | 7.4
3 | native pertuzumab (antibody) | – | 250 | – | 7.3
4 | DFO-^sspertuzumab-EndoS (antibody) | – | 1100 | 17.4 | 3
5 | DFO-^nsspertuzumab | 0.00156 | – | – | –
6 | DFO-^sspertuzumab-βGal (antibody) | – | 210 | – | 8
